Laboratory results reported in IntAct's records for PubMed 35512704.

B1: Speckle-type POZ protein (Homo sapiens), O43791 (parent)
chain: MSRVPSPPPPAEMSSGPVAESWCYTQIKVVKFSYMWTINNFSFCREEMGEVIKSSTFSSGANDKLKWCLRVNPKGLDEESKDYLSLYLLLVSCPKSEVRAKFKFSILNAKGEETKAMESQRAYRFVQGKDWGFKKFIRRDFLLDEANGLLPDDKLTLFCEVSVVQDSVNISGQNTMNMVKVPECRLADELGGLWENSRFTDCCLCVAGQEFQAHKAILAARSPVFSAMFEHEMEESKKNRVEINDVEPEVFKEMMCFIYTGKAPNLDKMADDLLAAADKYALERLKVMCEDALCSNLSVENAAEILILADLHSADQLKTQAVDFINYHASDVLETSGWKSMVVSHPHLVAEAYRSLASAQCPFLGPPRKRLKQS
partner: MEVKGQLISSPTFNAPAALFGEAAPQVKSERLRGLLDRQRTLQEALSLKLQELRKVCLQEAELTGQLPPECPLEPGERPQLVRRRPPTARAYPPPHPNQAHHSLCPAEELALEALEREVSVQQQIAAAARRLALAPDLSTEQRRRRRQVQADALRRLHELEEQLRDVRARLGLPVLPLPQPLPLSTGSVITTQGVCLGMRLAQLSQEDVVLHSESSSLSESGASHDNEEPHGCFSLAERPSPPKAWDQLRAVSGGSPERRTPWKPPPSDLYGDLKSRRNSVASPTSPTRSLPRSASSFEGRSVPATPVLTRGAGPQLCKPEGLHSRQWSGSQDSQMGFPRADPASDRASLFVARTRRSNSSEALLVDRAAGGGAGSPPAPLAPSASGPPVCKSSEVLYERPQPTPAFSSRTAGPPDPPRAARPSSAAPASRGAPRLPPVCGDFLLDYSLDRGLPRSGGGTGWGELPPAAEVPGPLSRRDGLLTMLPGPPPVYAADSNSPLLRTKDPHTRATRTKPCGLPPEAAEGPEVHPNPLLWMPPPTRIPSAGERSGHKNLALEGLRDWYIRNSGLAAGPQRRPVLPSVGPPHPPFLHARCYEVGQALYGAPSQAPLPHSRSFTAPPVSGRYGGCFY
B2: Mothers against decapentaplegic homolog 4 (Homo sapiens), Q13485 (parent)
chain: MDNMSITNTPTSNDACLSIVHSLMCHRQGGESETFAKRAIESLVKKLKEKKDELDSLITAITTNGAHPSKCVTIQRTLDGRLQVAGRKGFPHVIYARLWRWPDLHKNELKHVKYCQYAFDLKCDSVCVNPYHYERVVSPGIDLSGLTLQSNAPSSMMVKDEYVHDFEGQPSLSTEGHSIQTIQHPPSNRASTETYSTPALLAPSESNATSTANFPNIPVASTSQPASILGGSHSEGLLQIASGPQPGQQQNGFTGQPATYHHNSTTTWTGSRTAPYTPNLPHHQNGHLQHHPPMPPHPGHYWPVHNELAFQPPISNHPAPEYWCSIAYFEMDVQVGETFKVPSSCPIVTVDGYVDPSGGDRFCLGQLSNVHRTEAIERARLHIGKGVQLECKGEGDVWVRCLSDHAVFVQSYYLDREAGRAPGDAVHKIYPSAYIKVFDLRQCHRQMQQQAATAQAAAAAQAAAVAGNIPGPGSVGGIAPAISLSAAAGIGVDDLRRLCILRMSFVKGWGPDYPRQSIKETPCWIEIHLHRALQLLDEVLHTMPIADPQPLD
partner: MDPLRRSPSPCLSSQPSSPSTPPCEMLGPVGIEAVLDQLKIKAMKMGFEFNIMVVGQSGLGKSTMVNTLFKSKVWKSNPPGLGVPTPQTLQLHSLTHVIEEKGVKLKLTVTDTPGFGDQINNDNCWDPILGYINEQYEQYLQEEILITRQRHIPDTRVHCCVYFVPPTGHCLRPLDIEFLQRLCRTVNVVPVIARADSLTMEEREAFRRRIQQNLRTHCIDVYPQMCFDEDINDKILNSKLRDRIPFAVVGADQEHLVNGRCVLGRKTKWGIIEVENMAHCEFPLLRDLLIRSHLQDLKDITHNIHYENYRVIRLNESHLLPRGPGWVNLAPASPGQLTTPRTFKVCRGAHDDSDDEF
B3: Speckle-type POZ protein (Homo sapiens), O43791 (parent)
chain: B1 chain
partner: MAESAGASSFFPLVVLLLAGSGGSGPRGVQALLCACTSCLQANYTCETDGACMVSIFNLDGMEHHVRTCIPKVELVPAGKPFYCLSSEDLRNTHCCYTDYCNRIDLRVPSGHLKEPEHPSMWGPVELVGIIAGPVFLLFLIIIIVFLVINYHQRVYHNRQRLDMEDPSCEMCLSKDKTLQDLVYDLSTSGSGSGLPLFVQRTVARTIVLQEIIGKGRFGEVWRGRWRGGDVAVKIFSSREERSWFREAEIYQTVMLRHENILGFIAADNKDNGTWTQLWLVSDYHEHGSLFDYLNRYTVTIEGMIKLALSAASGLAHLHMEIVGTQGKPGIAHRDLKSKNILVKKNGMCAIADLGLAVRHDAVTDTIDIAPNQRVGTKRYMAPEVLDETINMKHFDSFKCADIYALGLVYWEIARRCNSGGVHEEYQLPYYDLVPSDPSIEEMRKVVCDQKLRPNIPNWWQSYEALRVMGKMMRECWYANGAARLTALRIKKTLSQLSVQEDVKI
B4: Mothers against decapentaplegic homolog 4 (Homo sapiens), Q13485 (parent)
chain: B2 chain
partner: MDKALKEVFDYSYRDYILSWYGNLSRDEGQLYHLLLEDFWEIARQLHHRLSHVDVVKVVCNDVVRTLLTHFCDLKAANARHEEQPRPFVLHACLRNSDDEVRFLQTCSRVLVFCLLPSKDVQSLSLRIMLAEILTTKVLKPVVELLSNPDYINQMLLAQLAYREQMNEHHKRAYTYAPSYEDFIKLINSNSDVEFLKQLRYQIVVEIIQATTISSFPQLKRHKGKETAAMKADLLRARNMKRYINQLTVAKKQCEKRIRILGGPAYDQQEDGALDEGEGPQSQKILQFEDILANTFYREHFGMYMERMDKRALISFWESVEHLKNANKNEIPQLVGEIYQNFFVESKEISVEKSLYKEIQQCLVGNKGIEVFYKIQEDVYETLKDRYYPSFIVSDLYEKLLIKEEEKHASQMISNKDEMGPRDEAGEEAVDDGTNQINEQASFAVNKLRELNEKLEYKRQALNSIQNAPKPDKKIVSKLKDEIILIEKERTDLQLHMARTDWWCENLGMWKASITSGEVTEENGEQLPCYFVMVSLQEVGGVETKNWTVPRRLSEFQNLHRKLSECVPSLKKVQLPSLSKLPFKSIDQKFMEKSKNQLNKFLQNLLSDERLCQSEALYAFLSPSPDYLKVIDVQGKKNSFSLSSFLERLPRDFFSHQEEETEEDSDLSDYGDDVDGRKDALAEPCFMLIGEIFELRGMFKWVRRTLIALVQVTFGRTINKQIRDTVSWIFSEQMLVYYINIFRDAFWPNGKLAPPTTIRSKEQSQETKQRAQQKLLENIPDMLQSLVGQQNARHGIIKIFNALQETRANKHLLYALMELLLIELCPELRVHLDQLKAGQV
B5: Mothers against decapentaplegic homolog 4 (Homo sapiens), Q13485 (parent)
chain: B2 chain
partner: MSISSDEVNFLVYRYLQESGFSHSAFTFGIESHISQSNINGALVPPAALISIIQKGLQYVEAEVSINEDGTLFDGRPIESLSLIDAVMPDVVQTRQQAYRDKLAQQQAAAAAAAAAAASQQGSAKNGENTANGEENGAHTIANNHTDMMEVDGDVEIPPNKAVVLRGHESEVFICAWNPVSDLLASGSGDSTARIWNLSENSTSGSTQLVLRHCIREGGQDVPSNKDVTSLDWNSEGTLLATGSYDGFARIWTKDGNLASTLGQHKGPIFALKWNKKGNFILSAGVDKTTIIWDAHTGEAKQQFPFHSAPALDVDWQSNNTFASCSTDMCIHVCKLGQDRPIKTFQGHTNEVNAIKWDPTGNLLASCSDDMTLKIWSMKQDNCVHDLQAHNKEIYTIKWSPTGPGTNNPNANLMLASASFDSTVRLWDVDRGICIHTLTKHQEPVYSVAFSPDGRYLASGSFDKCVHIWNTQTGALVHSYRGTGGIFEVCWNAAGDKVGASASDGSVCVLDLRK
B6: Mothers against decapentaplegic homolog 4 (Homo sapiens), Q13485 (parent)
chain: B2 chain
partner: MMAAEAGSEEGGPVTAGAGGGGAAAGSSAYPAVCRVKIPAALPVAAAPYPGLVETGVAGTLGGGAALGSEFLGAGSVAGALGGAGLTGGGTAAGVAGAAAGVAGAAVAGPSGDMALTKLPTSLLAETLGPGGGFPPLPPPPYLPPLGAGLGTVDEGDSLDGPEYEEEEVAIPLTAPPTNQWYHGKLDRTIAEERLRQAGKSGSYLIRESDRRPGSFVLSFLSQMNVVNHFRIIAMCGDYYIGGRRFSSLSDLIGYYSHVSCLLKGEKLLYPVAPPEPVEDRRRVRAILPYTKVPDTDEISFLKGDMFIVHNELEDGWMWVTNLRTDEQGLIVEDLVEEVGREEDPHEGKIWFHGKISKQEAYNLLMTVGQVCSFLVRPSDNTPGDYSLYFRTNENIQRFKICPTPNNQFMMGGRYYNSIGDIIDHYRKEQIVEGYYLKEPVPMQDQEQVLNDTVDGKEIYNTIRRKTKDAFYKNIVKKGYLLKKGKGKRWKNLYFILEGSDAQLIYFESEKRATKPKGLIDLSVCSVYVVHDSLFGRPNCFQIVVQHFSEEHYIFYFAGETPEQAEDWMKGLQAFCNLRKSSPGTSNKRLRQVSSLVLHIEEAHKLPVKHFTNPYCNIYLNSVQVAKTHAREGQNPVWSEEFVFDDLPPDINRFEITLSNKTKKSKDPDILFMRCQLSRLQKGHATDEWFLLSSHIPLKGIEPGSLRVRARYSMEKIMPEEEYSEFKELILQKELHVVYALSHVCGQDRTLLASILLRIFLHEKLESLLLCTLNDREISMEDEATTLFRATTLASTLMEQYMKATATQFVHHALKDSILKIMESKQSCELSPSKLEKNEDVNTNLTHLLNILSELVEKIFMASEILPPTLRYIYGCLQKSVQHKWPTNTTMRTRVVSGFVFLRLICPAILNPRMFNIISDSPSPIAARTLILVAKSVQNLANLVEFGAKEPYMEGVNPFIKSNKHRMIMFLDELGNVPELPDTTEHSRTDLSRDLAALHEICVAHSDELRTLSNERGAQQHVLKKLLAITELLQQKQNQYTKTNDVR
B7: Speckle-type POZ protein (Homo sapiens), O43791 (parent)
chain: B1 chain
partner: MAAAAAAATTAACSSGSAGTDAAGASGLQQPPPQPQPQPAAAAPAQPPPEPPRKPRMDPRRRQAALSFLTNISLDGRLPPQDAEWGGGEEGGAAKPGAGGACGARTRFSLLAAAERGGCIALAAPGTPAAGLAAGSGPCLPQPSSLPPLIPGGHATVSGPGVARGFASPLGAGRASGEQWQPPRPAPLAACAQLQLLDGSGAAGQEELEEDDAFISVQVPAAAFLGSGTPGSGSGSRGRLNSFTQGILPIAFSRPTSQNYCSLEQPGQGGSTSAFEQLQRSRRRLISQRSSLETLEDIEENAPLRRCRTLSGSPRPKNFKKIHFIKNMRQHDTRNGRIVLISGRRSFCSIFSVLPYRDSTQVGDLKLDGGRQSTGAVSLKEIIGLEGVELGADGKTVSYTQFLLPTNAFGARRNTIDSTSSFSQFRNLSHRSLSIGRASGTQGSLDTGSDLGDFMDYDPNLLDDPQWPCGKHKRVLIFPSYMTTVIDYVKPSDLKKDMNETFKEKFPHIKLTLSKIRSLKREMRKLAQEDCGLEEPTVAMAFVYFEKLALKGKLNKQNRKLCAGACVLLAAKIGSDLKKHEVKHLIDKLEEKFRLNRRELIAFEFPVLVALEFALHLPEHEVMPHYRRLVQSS

Variants of: B1
Conditions: with cc120_human CCDC120, Q96HB5

Question: Which “effect of a mutation on the interaction” value does the source give for Y87C here?
Answer: with no effect

Variants of: B2
Conditions: with sep12_human SEPTIN12, Q8IYM1

Question: R361C was tested. Which “effect of a mutation on the interaction” value did it give?
Answer: with no effect

Variants of: B3
Conditions: with acv1b_human ACVR1B

Question: Which “effect of a mutation on the interaction” value does the source give for Y87C here?
Answer: with no effect

Variants of: B3
Conditions: with acv1b_human ACVR1B
Remark: another data set of the same source

Question: With F133V as the variant, how does the “effect of a mutation on the interaction” value read?
Answer: with no effect

Variants of: B3
Conditions: with acv1b_human ACVR1B
Remark: another data set of the same source

Question: F133L was tested. Which “effect of a mutation on the interaction” value did it give?
Answer: with no effect

Variants of: B3
Conditions: with acv1b_human ACVR1B
Remark: another data set of the same source

Question: How did the “effect of a mutation on the interaction” value turn out when F102C was run?
Answer: with no effect

Variants of: B4
Conditions: with snx25_human SNX25, Q9H3E2

Question: For G386D, which “effect of a mutation on the interaction” value is on record?
Answer: with no effect

Variants of: B4
Conditions: with snx25_human SNX25, Q9H3E2
Remark: another data set of the same source

Question: With R361H as the variant, how does the “effect of a mutation on the interaction” value read?
Answer: with no effect

Variants of: B5
Conditions: with tbl1r_human TBL1XR1, Q9BZK7

Question: G386D was tested. Which “effect of a mutation on the interaction” value did it give?
Answer: with no effect

Variants of: B6
Conditions: with rasa1_human RASA1, P20936

Question: R361H was tested. Which “effect of a mutation on the interaction” value did it give?
Answer: with no effect

Variants of: B7
Conditions: with cabl1_human CABLES1, Q8TDN4

Question: F133L was tested. Which “effect of a mutation on the interaction” value did it give?
Answer: with no effect

Variants of: B7
Conditions: with cabl1_human CABLES1, Q8TDN4
Remark: another data set of the same source

Question: Which “effect of a mutation on the interaction” value does the source give for F133V here?
Answer: with no effect
